The record followed here is patent publication US20230322924A1 (Janssen / Centocor, published 2023).

Assay [1] has as its target Human CD33 ECD-HSA (human). Kind of assay: ProteOn SPR, mAb captured by anti-human Fc, 1:1 Langmuir fit.
Assay [2] deals with T1, Cyno CD33 ECD-HSA (cynomolgus monkey).
T1 construct: Cyno CD33 extracellular domain fused to monomeric human serum albumin and a six-histidine tag; also called C33W1
Described as above.

The target of assay [3] is Human CD33 ECD-HSA (human). The assay is described as follows: SPRi off-rate screen (IBIS MX96), mAb captured by anti-human Fc; column head prints KD.
Assay [4] concerns the target T2, Human CD33 full length, expressed on HEK293F cells (human, UniProt P20138 18-364).
T2 construct: HEK293F cells transduced with lentivirus containing full length human CD33; also called huCD33
The assay is described as follows: flow cytometry, HEK293F cells expressing human CD33. For orientation: Flow cytometry measures light scatter and fluorescence of single cells or particles in a stream.

Assay [5] deals with T3, Cyno CD33 full length, expressed on HEK293F cells (cynomolgus monkey).
T3 construct: HEK293F cells transduced with lentivirus containing full length cyno CD33 (Genbank XP_005590138.1); also called cyCD33
The assay is described as follows: flow cytometry, HEK293F cells expressing cyno CD33.

Assay [6] addresses T1, Cyno CD33 ECD-HSA. Kind of assay: SPRi off-rate screen (IBIS MX96), mAb captured by anti-human Fc; column head prints Cyno CD33 binding KD.

One may read the Kd as the free concentration of one partner at which half of the binding sites on the other are occupied at equilibrium, for simple one-to-one binding. A higher Kd goes with a looser complex. Usually koff stands for a measure of how fast the partners let go of each other. Read a low koff as slow dissociation. As usually defined, the kon is the rate constant with which the complex forms. A low value points to slower complex formation.

Human CD33 ECD-HSA (human), sequence (chain, as listed by the source): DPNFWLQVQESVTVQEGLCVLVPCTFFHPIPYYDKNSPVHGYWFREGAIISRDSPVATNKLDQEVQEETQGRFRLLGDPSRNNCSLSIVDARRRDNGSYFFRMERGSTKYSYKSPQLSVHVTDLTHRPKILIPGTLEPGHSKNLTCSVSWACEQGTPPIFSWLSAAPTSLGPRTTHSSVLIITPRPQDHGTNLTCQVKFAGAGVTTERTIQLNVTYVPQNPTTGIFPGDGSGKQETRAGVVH
T2 sequence (P20138 18-364 limits assumed): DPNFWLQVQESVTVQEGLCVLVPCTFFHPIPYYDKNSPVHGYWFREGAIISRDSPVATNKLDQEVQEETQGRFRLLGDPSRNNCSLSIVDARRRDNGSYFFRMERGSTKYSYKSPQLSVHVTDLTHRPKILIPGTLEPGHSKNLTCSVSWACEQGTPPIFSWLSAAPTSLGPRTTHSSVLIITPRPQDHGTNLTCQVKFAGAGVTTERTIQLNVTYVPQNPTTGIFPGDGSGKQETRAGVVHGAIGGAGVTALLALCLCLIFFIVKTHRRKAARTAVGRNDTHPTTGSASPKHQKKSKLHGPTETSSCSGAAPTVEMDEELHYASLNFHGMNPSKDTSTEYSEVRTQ

B1: C33B55 (antibody, IgG1, V domains shown)
VH: QVQLVESGGGVVQPGRSLRLSCAASGFTFSSYGMHWVRQSPGKGLEWVAVISYDGSNKYCADSVKGRFTISRDNSKSTLYLQMNSLRAEDTAVYYCAKDFRSLDWLPPDSTSYDGMDVWGQGTTVTVSS
VL: SYELTQPPSVSVSPGQTASITCSGHKLGDKYACWYQQKPGQSPVVVIYKDSKRPSGIPERFSGSNFGNTATLTISGTQAMDEADYYCQAWDSSTVVFGGGTKLTVL
notes: huIgG1 F405L; also called C33F60; C33H45/C33L11
In the assay with Human CD33 ECD-HSA [1], B1 displayed a Kd of 0.26 nM, a koff of 0.000253 s⁻¹ and a kon of 985000 M⁻¹ s⁻¹. Moreover, in the assay with Cyno CD33 ECD-HSA [2], binding was put at a Kd of 0.0723 nM, the koff worked out at 8.37e-05 s⁻¹ and the kon stood at 1.16e+06 M⁻¹ s⁻¹. The same molecule registered a koff with Human CD33 ECD-HSA [3] of 0.000215 s⁻¹. For the same molecule, in assay [4], the “MFI at 0 nM mAb (background)” value amounted to 105 MFI, the “MFI at 0.6 nM mAb” value was 7630 MFI, the “MFI at 6 nM mAb” value amounted to 59200 MFI and the “MFI at 60 nM mAb” value is 188000 MFI. Moreover, in assay [5], the “MFI at 0 nM mAb (background)” value stood at 69.4 MFI, the “MFI at 0.6 nM mAb” value was 2430 MFI, the “MFI at 6 nM mAb” value amounted to 9990 MFI and the “MFI at 60 nM mAb” value was 16000 MFI. In addition, the koff in the assay with Cyno CD33 ECD-HSA [6] is 0.000116 s⁻¹.

B2: C33B79 (antibody, IgG1, V domains shown)
VH: QVQLVESGGGVVQPGRSLRLSCAASRFTFSSYGMHWVRQAPGKGLEWVAVISYDGSNKYYADSVKGRFTISRDNSKNTLYLQMNSLRAEDTAVHYCAKDFRSFDWLPPDSASYHGMDVWGQGTTVTVSS
VL: SYELTQPPSVSVPPGQTASITCSGDKLGDKYACWYQQKPGQSPVLVIYQDNKRPSGIPERFSGSNSGNTATLTISGTQAMDEADYYCQAWGRNTVVFGGGTKLTVL
notes: huIgG1 F405L; also called C33F84; C33H74/C33L38
As to B2, in the assay with Human CD33 ECD-HSA [1], binding was characterised by a dissociation constant (Kd) of 0.76 nM, the koff worked out at 0.00039 s⁻¹ and the kon came to 515000 M⁻¹ s⁻¹. For the same molecule, in the assay with Cyno CD33 ECD-HSA [2], the Kd came out at 4.01 nM, the koff amounted to 0.0022 s⁻¹ and the kon was 548000 M⁻¹ s⁻¹. Moreover, in the assay with Human CD33 ECD-HSA [3], the koff amounted to 0.000328 s⁻¹. In assay [4], the “MFI at 0 nM mAb (background)” value is 77.8 MFI, the “MFI at 0.6 nM mAb” value stood at 4990 MFI, the “MFI at 6 nM mAb” value came to 41900 MFI and the “MFI at 60 nM mAb” value came to 237000 MFI. Also, in assay [5], the “MFI at 0 nM mAb (background)” value is 63.6 MFI, the “MFI at 0.6 nM mAb” value was 1080 MFI, the “MFI at 6 nM mAb” value was 6430 MFI and the “MFI at 60 nM mAb” value was determined as 15500 MFI. The molecule also had a koff with Cyno CD33 ECD-HSA [6] of 0.00682 s⁻¹.

B3: C33B73 (antibody, IgG1, V domains shown)
VH: QVQLVESGGGVVQPGRSLRLSCVASGFTFSSYGMHWVRQAPGKGLEWVAVISYDGSNKYYADSVKGRFTISRDNSKNTLYLQMNSLRAEGTAVYYCAKDFRSFDWLPPDSASYHGMDVWGQGTTVTVSS
VL: SYELTQPPSVSVSPGQTASITCSGDKLGDKYACWYQQKPGQSPVLVIYQDGKRPSGIPERFSGSNFGNKATLTISGTQAMDEADYYCQAWDRNTVVFGGGTKLTVL
notes: huIgG1 F405L; also called C33F78; C33H66/C33L60
As to B3, in the assay with Human CD33 ECD-HSA [1], binding was put at a Kd of 0.1 nM, the koff is 5.59e-05 s⁻¹ and the kon was 559000 M⁻¹ s⁻¹. In the assay with Cyno CD33 ECD-HSA [2], this molecule showed a Kd of 0.846 nM, a koff of 0.000508 s⁻¹ and a kon of 600000 M⁻¹ s⁻¹. In the assay with Human CD33 ECD-HSA [3], this molecule came in with a koff of 9.12e-05 s⁻¹. For the same molecule, in assay [4], the “MFI at 0 nM mAb (background)” value is 94 MFI, the “MFI at 0.6 nM mAb” value was 4030 MFI, the “MFI at 6 nM mAb” value was determined as 33400 MFI and the “MFI at 60 nM mAb” value was 201000 MFI. Besides, in assay [5], the “MFI at 0 nM mAb (background)” value is 72.5 MFI, the “MFI at 0.6 nM mAb” value came out at 796 MFI, the “MFI at 6 nM mAb” value turned out to be 6990 MFI and the “MFI at 60 nM mAb” value was determined as 14800 MFI. Further, the koff with Cyno CD33 ECD-HSA [6] came out at 0.000408 s⁻¹.
